Measured values from patent US20080206239A1 (ANTITOPE, published 2008).
Where a chain is given by its changes, count along the chain named.

B1: antibody of heavy chain SEQ. ID. No. 1 and light chain SEQ. ID. No. 4 (antibody, human IgG1, V domains shown)
VH: EVKLEESGGGLVQPGGSMKLSCVASGFIFSNHWMNWVRQSPEKGLEWVAEIRSKSINSATHYAESVKGRFTISRDDSKSAVYLQMTDLRTEDTGVYYCSRNYYGSTYDYWGQGTTLTVSS
VL: DILLTQSPAILSLSPGERATLSCRASQFVGSSIHWYQQKTNQSPKLLIKYASESMSGIPSRFSGSGSGTDFTLTINSLESEDAADYYCQQSHSWPFTFGQGTNLEIK
B2: primary Composite Human Antibody (heavy chain SEQ. ID. No. 3 and light chain SEQ. ID. No. 4) (antibody, human IgG1, V domains shown)
VH: B1 VH with K3Q, E5V, M18L, S40A, E42G, A80I, L116V
VL: B1 VL
B3: Composite Human Antibody of heavy chain SEQ. ID. No. 5 and light chain SEQ. ID. No. 4 (antibody, human IgG1, V domains shown)
VH: B1 VH with K3Q, E5V, M18L, S40A, E42G, A80I, T86N, R89K, L116V
VL: B1 VL
B4: Composite Human Antibody of heavy chain SEQ. ID. No. 6 and light chain SEQ. ID. No. 4 (antibody, human IgG1, V domains shown)
VH: B1 VH with K3Q, E5V, M18L, S40A, E42G, A80I, T86N, D87S, R89K, L116V
VL: B1 VL
B5: Composite Human Antibody 7/4 (antibody, human IgG1, V domains shown)
VH: EVQLVESGGGLVQPGGSLKLSCAASGFIFSNHWMNWVRQAPGKGLEWVAEIRSKSINSATHYAESVKGRFTISRDDSKSIVYLQMNSLKTEDTGVYYCSRNYYGSTYDYWGQGTTVTVSS
VL: B1 VL
B6: antibody of heavy chain SEQ. ID. No. 1 and light chain SEQ. ID. No. 9 (antibody, human IgG1, V domains shown)
VH: B1 VH
VL: B1 VL with I10T, N103R
B7: Composite Human Antibody of heavy chain SEQ. ID. No. 3 and light chain SEQ. ID. No. 9 (antibody, human IgG1, V domains shown)
VH: B5 VH with A23V, N86T, S87D, K89R
VL: B1 VL with I10T, N103R
B8: Composite Human Antibody of heavy chain SEQ. ID. No. 5 and light chain SEQ. ID. No. 9 (antibody, human IgG1, V domains shown)
VH: B5 VH with A23V, S87D
VL: B1 VL with I10T, N103R
B9: Composite Human Antibody of heavy chain SEQ. ID. No. 6 and light chain SEQ. ID. No. 9 (antibody, human IgG1, V domains shown)
VH: B5 VH with A23V
VL: B1 VL with I10T, N103R
B10: Composite Human Antibody 7/9 (antibody, human IgG1, V domains shown)
VH: B5 VH
VL: B1 VL with I10T, N103R
B11: antibody of heavy chain SEQ. ID. No. 1 and light chain SEQ. ID. No. 10 (antibody, human IgG1, V domains shown)
VH: B1 VH
VL: B1 VL with I10T, S80A, N103R
B12: Composite Human Antibody of heavy chain SEQ. ID. No. 3 and light chain SEQ. ID. No. 10 (antibody, human IgG1, V domains shown)
VH: B5 VH with A23V, N86T, S87D, K89R
VL: B1 VL with I10T, S80A, N103R
B13: Composite Human Antibody 5/10 (antibody, human IgG1, V domains shown)
VH: B5 VH with A23V, S87D
VL: B1 VL with I10T, S80A, N103R
B14: Composite Human Antibody of heavy chain SEQ. ID. No. 6 and light chain SEQ. ID. No. 10 (antibody, human IgG1, V domains shown)
VH: B5 VH with A23V
VL: B1 VL with I10T, S80A, N103R
B15: Composite Human Antibody 7/10 (i.e. containing SEQ. ID. No.s 7 and 10) (antibody, human IgG1, V domains shown)
VH: B5 VH
VL: B1 VL with I10T, S80A, N103R
B16: antibody of heavy chain SEQ. ID. No. 1 and light chain SEQ. ID. No. 11 (antibody, human IgG1, V domains shown)
VH: B1 VH
VL: B1 VL with I10T, N41D, S80A, N103R
B17: Composite Human Antibody of heavy chain SEQ. ID. No. 3 and light chain SEQ. ID. No. 11 (antibody, human IgG1, V domains shown)
VH: B5 VH with A23V, N86T, S87D, K89R
VL: B1 VL with I10T, N41D, S80A, N103R
B18: Composite Human Antibody of heavy chain SEQ. ID. No. 5 and light chain SEQ. ID. No. 11 (antibody, human IgG1, V domains shown)
VH: B5 VH with A23V, S87D
VL: B1 VL with I10T, N41D, S80A, N103R
B19: Composite Human Antibody of heavy chain SEQ. ID. No. 6 and light chain SEQ. ID. No. 11 (antibody, human IgG1, V domains shown)
VH: B5 VH with A23V
VL: B1 VL with I10T, N41D, S80A, N103R
B20: Composite Human Antibody of heavy chain SEQ. ID. No. 7 and light chain SEQ. ID. No. 11 (antibody, human IgG1, V domains shown)
VH: B5 VH
VL: B1 VL with I10T, N41D, S80A, N103R
B21: antibody of heavy chain SEQ. ID. No. 3 and light chain SEQ. ID. No. 2 (antibody, human IgG1, V domains shown)
VH: B5 VH with A23V, N86T, S87D, K89R
VL: DILLTQSPAILSVSPGERVSFSCRASQFVGSSIHWYQQRTNGSPRLLIKYASESMSGIPSRFSGSGSGTDFTLSINTVESEDIADYYCQQSHSWPFTFGSGTNLEVK
B22: antibody of heavy chain SEQ. ID. No. 5 and light chain SEQ. ID. No. 2 (antibody, human IgG1, V domains shown)
VH: B5 VH with A23V, S87D
VL: B21 VL
B23: antibody of heavy chain SEQ. ID. No. 6 and light chain SEQ. ID. No. 2 (antibody, human IgG1, V domains shown)
VH: B5 VH with A23V
VL: B21 VL
B24: antibody of heavy chain SEQ. ID. No. 7 and light chain SEQ. ID. No. 2 (antibody, human IgG1, V domains shown)
VH: B5 VH
VL: B21 VL

Target: human TNFα (human, UniProt P01375 77-233)
Sequence (P01375 77-233 limits assumed): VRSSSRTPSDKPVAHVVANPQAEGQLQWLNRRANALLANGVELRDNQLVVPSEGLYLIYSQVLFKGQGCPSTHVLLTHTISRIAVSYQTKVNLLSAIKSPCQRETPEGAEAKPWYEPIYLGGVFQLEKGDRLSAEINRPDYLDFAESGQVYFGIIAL
Assay: cell-based or functional assay

| Binder | Ratio of Activities compared to Chimeric Antibody (fold difference, WEHI-164 protection assay at 25 ng/ml) [fold] |
| --- | --- |
| B1 | 1.51 |
| B2 | 2.28 |
| B3 | 1.28 |
| B4 | 1.38 |
| B5 | 1.05 |
| B6 | 1.28 |
| B7 | 2.14 |
| B8 | 1.32 |
| B9 | 1.77 |
| B10 | 0.95 |
| B11 | 1.31 |
| B12 | 2.51 |
| B13 | 1.17 |
| B14 | 1.63 |
| B15 | 0.98 |
| B16 | 16.9 |
| B17 | 15.2 |
| B18 | 196 |
| B19 | 134 |
| B20 | 106 |
| B21 | 1.38 |
| B22 | 1.24 |
| B23 | 1.2 |
| B24 | 1.02 |
